Reference: patent US12286461B2, “Recombinant fused polypeptide and use thereof” (priority 2019, dated 2025)

B1: PRCWRGEGGGGIVRRADRAAVPGGGGRGDGGGGSGGGGSGGGGSSDKPGGGGTSLDASIIWAMMQNGGGGLSKL (protein)
chain: PRCWRGEGGGGIVRRADRAAVPGGGGRGDGGGGSGGGGSGGGGSSDKPGGGGTSLDASIIWAMMQNGGGGLSKL
notes: Recombinant fused polypeptide X-linker1-Y expressed in 293 cells

Experiments:
protozoa = assay: Mouse pneumonia model, protozoal pneumonia; type: in vivo; conditions: BALB/C mouse pneumonia model, nasal drip; average ± standard deviation
Text: (§1) A mouse pneumonia model was successfully established by using a nasal drip method. BALB/C mice with a body weight of 18-24 g were selected, and then anesthetized with ether on day 0, day 1 and day 2, respectively, prepared Streptococcus pneumoniae bacteria solution, adenovirus concentrated solution, Mycoplasma pneumoniae, Chlamydia pneumoniae, protozoa and pneumonia fungi were slowly dropped into the nasal cavity of the mice, so that the bacteria solutions entered the trachea and bronchi, and the bacteria solutions were prevented from flowing into the esophagus during the operation to avoid inactivation of the bacteria solutions, so that the mouse pneumonia model was established. After the model was successfully established, the recombinant fused polypeptides according to the present invention were administered.

Mycoplasma pneumoniae = assay: Mouse pneumonia model, mycoplasma pneumonia; type: in vivo; conditions: BALB/C mouse pneumonia model, nasal drip; average ± standard deviation
Text: as §1

Streptococcus pneumoniae = assay: Mouse pneumonia model, bacterial pneumonia; type: in vivo; conditions: BALB/C mouse pneumonia model, nasal drip; average ± standard deviation
Text: as §1

Chlamydia pneumoniae = assay: Mouse pneumonia model, chlamydia pneumonia; type: in vivo; conditions: BALB/C mouse pneumonia model, nasal drip; average ± standard deviation
Text: as §1

adenovirus = assay: Mouse pneumonia model, viral pneumonia; type: in vivo; conditions: BALB/C mouse pneumonia model, nasal drip; average ± standard deviation
Text: as §1

pulmonary infections = assay: Mouse pneumonia model, pneumonia caused by pulmonary infections; type: in vivo, BALB/C mice; conditions: BALB/C mouse pneumonia model, nasal drip, average ± standard deviation
Text: as §1

pneumonia fungi = assay: Mouse pneumonia model, fungal pneumonia; type: in vivo; conditions: BALB/C mouse pneumonia model, nasal drip; average ± standard deviation
Text: as §1

[1] = tested on: SD rats with CCl4-induced hepatic fibrosis; assay: CCl4-induced hepatic fibrosis animal model; type: in vivo; conditions: 40% CCl4 i.p. twice a week for 8 weeks, fused polypeptides 6 mg/kg s.c. once every five days
Method: Modeling was performed on the rats. Each group other than the blank group was injected with 40% CCl4 intraperitoneally twice a week, the first injection was performed at 3 mL/kg, and then injection was performed at 2 mL/kg. Modeling was performed for 8 weeks to induce hepatic fibrosis. After the intraperitoneal injection of CCl4 for the fourth time, the drugs were administered according to Table 3. After induction for 8 weeks, the administration was stopped. The SD rats were dissected the next day, and blood was taken. The liver tissue was stored in a refrigerator at −80° C. for further use. The expression of HYP in the hepatic tissue of rats was detected. [table]

[2] = tested on: SD rats with bleomycin-induced pulmonary fibrosis; assay: Bleomycin-induced pulmonary fibrosis animal model; type: in vivo; conditions: for Survival rate (%): bleomycin 5 mg/kg intratracheal, dosage 10 mg/kg (Table 2), administration cycle 15 days from day 7 after modeling; for content of TGF-β1 in serum, difference from the model group: fused polypeptides 10 mg/kg s.c. once every five days, nintedanib 25 mg/kg intragastric once a day
Method: SD rats were anesthetized by intraperitoneal injection of 4% chloral hydrate with a concentration of 1 mL/100 g. After anesthesia, the rats were fixed and their necks were disinfected by using cotton with 75% alcohol. The skin of the rat neck was longitudinally cut with scissors, and the fascia and muscle were longitudinally bluntly torn with tweezers to expose the trachea. A syringe was inserted into the trachea to inject 5 mg/kg bleomycin, while a blank group was injected with an equal amount of normal saline. Then a rat plate was quickly erected and rotated, the rats' breathing was observed, the neck wound was sterilized after rotation and was sewn, and an amoxicillin anti-inflammatory drug was sprinkled on the suture. After the operation, the rats were put back into a dry and clean cage for resting, waiting for awakening. The rats were awakened after about 1-2 hours, and then fed normally. On the 7th day after modeling, modeling group animals randomly fell into a model group, a Nintedanib positive drug group, recombinant fused polypeptide 1, 2, 3 and 4 dosage groups, and a normal control group, and the groups were administered separately for an administration cycle of 15 days. Living situations of rats were observed every day and their weights were weighed. After administration for 15 days, the eyeballs were removed and blood was taken, the rats were dissected, and lungs were taken. The content of TGF-β1 in serum and the content of HYP in lung tissues were detected.

[3] = tested on: SD rats with renal fibrosis; assay: Renal fibrosis animal model (ureter ligation); type: in vivo; conditions: 6 mg/kg s.c. once every five days, after 15 days
Method: A renal fibrosis animal model was established. SD rats were anesthetized with 4% chloral hydrate, injected with 1 mL/100 g intraperitoneally, fixed to an operation board, and sterilized in an operation area for further use. […] Muscular layers and abdominal walls were sewed layer by layer, the suture was disinfected with alcohol. After SD rats woke up, the rats were put into a cage for feeding. In the blank group, ureter was not ligated, and other steps were the same.
Then, the animals fell into a blank group, a model group, and recombinant fused polypeptide administration groups, and the administration was started on the second day after the operation, and was performed for 15 days. After administration for 15 days, blood was taken and supernatant was taken to detect the content of TGF-β1 in serum.

[4] = tested on: mice with bleomycin-induced skin fibrosis; assay: Bleomycin-induced skin fibrosis model; type: in vivo, C57/BL black mice; conditions: C57/BL mice, bleomycin 10 μg/mL s.c. daily for 28 days, 10 mg/kg s.c. once every five days, 6 times, FIG. 6
Method: Bleomycin (10 μg/mL) was injected subcutaneously every day for 28 days to form skin fibrosis. During the modeling period, the administration groups were given drugs for treatment. After modeling, the mice were killed on the next day, and the skin tissue of the mouse back was taken to detect the content of HYP in the skin tissue. [table]

[5] = tested on: mice with myocardial fibrosis; assay: Isoprenaline-induced myocardial fibrosis animal model; type: in vivo; conditions: BALB/c mice, isoprenaline 5 mg/kg s.c. daily for 7 days, 12 mg/kg s.c. (Table 5), after the 8th day, FIG. 5
Method: In the model group, the experimental mice were injected with isoprenaline (ISO) (5 mg/kg) subcutaneously on the back of the mice every day for 7 consecutive days, and the mice were injected with normal saline subcutaneously (200 μL/mouse) every day. In the blank group, normal saline was injected subcutaneously (200 μL/mouse) every day. […] After the 8th day, blood was taken and was centrifuged, the supernatant was taken, and the content of TGF-β1 in serum was detected.

[6] = listed as recombinant fused polypeptide I

Molecule | Inhibitory effect, Protozoal pneumonia (protozoa) | Inhibitory effect, Mycoplasma pneumonia (Mycoplasma pneumoniae) | Inhibitory effect, Bacterial pneumonia (Streptococcus pneumoniae) | Inhibitory effect, Chlamydia pneumonia (Chlamydia pneumoniae) | Inhibitory effect, Viral pneumonia (adenovirus) | Inhibitory effect, Pneumonia caused by pulmonary infections (pulmonary infections) | Inhibitory effect, Fungal pneumonia (pneumonia fungi) | Survival rate (%) [2] | also measured
Penicillin [reference compound] | 45.62 ± 5.43 | 43.21 ± 4.56 | 39.21 ± 5.35 | 39.13 ± 5.23 | 50.07 ± 5.12 | 45.78 ± 3.65 | 38.89 ± 2.24 |  | 
COC(=O)c1ccc2c(c1)NC(=O)/C2=C(\Nc1ccc(N(C)C(=O)CN2CCN(C)CC2)cc1)c1ccccc1 [Nintedanib, nintedanib, reference compound] |  |  |  |  |  |  |  | 85.7% | content of HYP in liver tissue, difference from the model group ([1]; FIG. 3): highly significantly different from the model group (***P<0.001); content of TGF-β1 in serum, difference from the model group ([2]; bleomycin pulmonary fibrosis, after 15 days, FIG. 2): highly significantly different from the model group (**P<0.01)
B1 | 54.26 ± 5.32 | 38.47 ± 4.35 | 38.43 ± 8.25 | 39.26 ± 4.66 | 54.68 ± 5.23 | 52.47 ± 4.28 | 49.68 ± 5.74 | 85.7% | content of HYP in liver tissue, difference from the model group ([1]; FIG. 3, listed as Recombinant fused polypeptide 1): highly significantly different from the model group (***P<0.001); content of HYP in liver tissue, difference from the model group ([1]; FIG. 3, listed as recombinant fused polypeptide I): can lower the HYP content; content of TGF-β1 in serum, difference from the model group ([3]; FIG. 4, listed as recombinant fused polypeptide 1, 6 mg/kg): highly significantly different from the model group (***P<0.001); content of TGF-β1 in serum, difference from the model group ([3]; FIG. 4, listed as recombinant fused polypeptide I, 6 mg/kg): can lower the TGF-β1 content; content of HYP in skin tissue, difference from the model group ([4]; listed as recombinant fused polypeptide 1, 10 mg/kg): highly significantly different from the model group (**P<0.01); content of HYP in skin tissue, difference from the model group ([4]; listed as recombinant fused polypeptide I, 10 mg/kg): can lower the hydroxyproline content; Survival rate (%) ([2]; listed as fused polypeptide 1): equivalent to that of the positive drug group; hydroxyproline (HYP) content in lung tissue ([2]; bleomycin pulmonary fibrosis, 10 mg/kg s.c. once every five days, after 15 days, FIG. 1): can lower the hydroxyproline content; content of TGF-β1 in serum, difference from the model group ([2]; bleomycin pulmonary fibrosis, after 15 days, FIG. 2, listed as fused polypeptide 1): highly significantly different from the model group (**P<0.01); content of TGF-β1 in serum, difference from the model group ([2]; bleomycin pulmonary fibrosis, after 15 days, FIG. 2, listed as recombinant fused polypeptide I): can lower the TGF-β1 content; content of TGF-β1 in serum, difference from the model group ([5]; listed as recombinant fused polypeptide 1): significantly different from the model group (**P<0.01); content of TGF-β1 in serum, difference from the model group [5, 6]: can lower the TGF-β1 content; Inhibitory effect, Pneumonia caused by pulmonary infections (pulmonary infections; [6]): inhibitory effect
